Results: patent US20190040132A1 (FRED HUTCHINSON CANCER RESEARCH CENTER, published 2019)

Target: T1, human ROR2 (human, UniProt Q01974 34-943)
T1 construct: also called K562 expressing human ROR2
Assay: IHC on FFPE K562 cells transduced with human ROR2

T1 sequence (Q01974 34-943 limits assumed): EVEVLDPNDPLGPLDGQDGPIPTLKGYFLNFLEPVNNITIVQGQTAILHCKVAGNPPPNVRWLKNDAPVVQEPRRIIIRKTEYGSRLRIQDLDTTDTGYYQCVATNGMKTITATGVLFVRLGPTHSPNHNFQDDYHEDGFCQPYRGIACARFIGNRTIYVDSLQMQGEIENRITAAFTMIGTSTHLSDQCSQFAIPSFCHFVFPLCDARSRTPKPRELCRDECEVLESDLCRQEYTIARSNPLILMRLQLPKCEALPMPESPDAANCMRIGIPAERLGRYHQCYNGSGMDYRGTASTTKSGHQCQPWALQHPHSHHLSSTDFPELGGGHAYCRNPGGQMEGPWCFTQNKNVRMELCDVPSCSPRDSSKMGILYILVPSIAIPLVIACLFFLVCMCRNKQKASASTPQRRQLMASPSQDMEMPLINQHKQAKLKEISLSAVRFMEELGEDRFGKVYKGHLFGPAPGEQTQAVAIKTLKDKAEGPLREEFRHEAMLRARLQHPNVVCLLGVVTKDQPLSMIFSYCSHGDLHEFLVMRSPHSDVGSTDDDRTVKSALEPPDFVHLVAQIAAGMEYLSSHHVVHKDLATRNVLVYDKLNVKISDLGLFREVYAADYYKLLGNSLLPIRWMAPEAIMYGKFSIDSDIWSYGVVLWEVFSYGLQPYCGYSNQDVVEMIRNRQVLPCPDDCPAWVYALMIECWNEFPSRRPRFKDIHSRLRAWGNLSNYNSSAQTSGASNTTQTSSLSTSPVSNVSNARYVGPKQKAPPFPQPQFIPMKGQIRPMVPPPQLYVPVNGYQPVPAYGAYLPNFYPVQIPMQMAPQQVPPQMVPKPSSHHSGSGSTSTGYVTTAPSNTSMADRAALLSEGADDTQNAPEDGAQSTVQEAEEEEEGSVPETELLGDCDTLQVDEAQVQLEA

- binding result: no binding
B1: anti-ROR1 monoclonal antibody 6D4 (antibody, V domains shown)
VH: SGPELVKPGTSVKMSCKASGYTFTDYYMNWVKQTHGKNLEWIGRVNPSNGNTDYNQKFKGKATLTVDKSLSTAYMQLSSLTSEDSAVYYCGRLAYWGQGSLVTVSA
VL: LTQSPASLAVSPGQRATISCKASQSVDYDGETYMNWYQQKSGQPPKLLIYAASNLESGIPARFSGSGSGTDFTLNIHPVEEEDAATYYCLQTLKNPYTFGGGTKLEIK
notes: Mouse monoclonal antibody from a hybridoma, used as supernatant or purified; also called mAb 6D4; clone 6D4
